Data on 1 molecule can be found in US20170326260A1 (CYTOMX THERAPEUTICS, published 2017).

One test deals with parental antibody C225v5. Description: ELISA; target antibody coated at 1 ug/ml, HRP anti-rabbit IgG, OD 450 nm.
The target in test [1] is 3954-1204-c225v5 activatable anti-EGFR antibody activated with uPA. Described as above.
Protocol: (§1) The plates were washed with PBS/0.05% Tween 20 (wash butter) and then blocked with PBS/1% BSA for 1 hour at room temperature. The blocking buffer was removed, and the anti-AA antibodies 41, 58, 72 or 85, i.e., antibodies that bind activatable antibodies and/or conjugated activatable antibodies, were added and incubated for 1 hour. The plates were washed with wash buffer and incubated with 50 μl of 1 μg/ml of horseradish peroxidase conjugated donkey anti-rabbit IgG antibody for 1 hour. The plates were washed with wash buffer and 100 μl/well of TMB substrate was added. The reaction was stopped by the addition of 100 μl 1M HCl and the OD 450 nm was measured.

Protocol for parental antibody C225v5: as §1

B1: antibody 85-1 (antibody, V domains shown)
VH: QSLEESGGHLVTPGTPLTLTCKASGFSLSSYCMSWVRQAPGKGLEWIGIIGGICSTYYAAWAKGRFTISKTSTTVDLKIASPTTEDTATYFCARPAYNSDPIWGPGTLVTVSS
VL: QVLTQTPSPVSVAVGGTVTINCQASQSVYNNNYLSWYQQKPGQPPKVLIYDAATLASGVSSRFRGSGSGTQFTLTISDVQCDDAATYYCLGEFSCGSADCNAFGGGTEVVVKG
notes: also called clone 85
Regarding B1, the binding result (with parental antibody C225v5; in test [1]) was “no binding” in each case.
